Holding throughout (assay): AVEXIS screen signal:noise (double-corrected)
The target in assay [1] is ADP099.
The target of assay [2] is T1, ADP096.
T1 chain: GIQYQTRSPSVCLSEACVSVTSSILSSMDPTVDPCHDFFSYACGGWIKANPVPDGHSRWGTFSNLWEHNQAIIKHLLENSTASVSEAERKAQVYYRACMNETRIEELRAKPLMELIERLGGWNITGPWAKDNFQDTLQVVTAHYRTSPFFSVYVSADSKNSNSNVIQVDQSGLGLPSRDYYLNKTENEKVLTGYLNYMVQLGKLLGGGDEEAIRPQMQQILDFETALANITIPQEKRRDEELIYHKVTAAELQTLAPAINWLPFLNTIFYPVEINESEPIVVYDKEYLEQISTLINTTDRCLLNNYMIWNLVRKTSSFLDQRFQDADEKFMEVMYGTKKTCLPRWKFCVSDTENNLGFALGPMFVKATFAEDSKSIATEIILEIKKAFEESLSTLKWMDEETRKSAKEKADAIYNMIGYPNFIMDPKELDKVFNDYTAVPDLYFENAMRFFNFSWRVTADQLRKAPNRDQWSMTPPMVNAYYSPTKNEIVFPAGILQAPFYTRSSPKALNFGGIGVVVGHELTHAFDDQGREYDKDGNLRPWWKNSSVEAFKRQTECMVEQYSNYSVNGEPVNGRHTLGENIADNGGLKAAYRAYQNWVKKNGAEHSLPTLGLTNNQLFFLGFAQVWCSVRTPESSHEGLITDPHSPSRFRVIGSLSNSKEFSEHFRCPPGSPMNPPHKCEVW

Assay [3] deals with T2, ADP292.
T2 chain: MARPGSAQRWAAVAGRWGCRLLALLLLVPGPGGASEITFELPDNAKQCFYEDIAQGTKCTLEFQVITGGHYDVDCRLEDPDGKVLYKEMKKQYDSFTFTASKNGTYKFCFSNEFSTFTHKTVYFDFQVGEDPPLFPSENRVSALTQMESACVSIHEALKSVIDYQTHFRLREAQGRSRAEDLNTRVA

The target of assay [4] is T3, ADP106.
T3 chain: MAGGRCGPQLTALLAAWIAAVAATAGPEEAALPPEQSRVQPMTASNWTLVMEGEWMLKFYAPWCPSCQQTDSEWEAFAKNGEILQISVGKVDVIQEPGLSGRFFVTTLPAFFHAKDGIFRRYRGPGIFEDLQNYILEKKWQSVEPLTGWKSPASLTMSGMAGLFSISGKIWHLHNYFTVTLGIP

Assay [5] has as its target ADP386.
The target of assay [6] is T4, ADP381.
T4 chain: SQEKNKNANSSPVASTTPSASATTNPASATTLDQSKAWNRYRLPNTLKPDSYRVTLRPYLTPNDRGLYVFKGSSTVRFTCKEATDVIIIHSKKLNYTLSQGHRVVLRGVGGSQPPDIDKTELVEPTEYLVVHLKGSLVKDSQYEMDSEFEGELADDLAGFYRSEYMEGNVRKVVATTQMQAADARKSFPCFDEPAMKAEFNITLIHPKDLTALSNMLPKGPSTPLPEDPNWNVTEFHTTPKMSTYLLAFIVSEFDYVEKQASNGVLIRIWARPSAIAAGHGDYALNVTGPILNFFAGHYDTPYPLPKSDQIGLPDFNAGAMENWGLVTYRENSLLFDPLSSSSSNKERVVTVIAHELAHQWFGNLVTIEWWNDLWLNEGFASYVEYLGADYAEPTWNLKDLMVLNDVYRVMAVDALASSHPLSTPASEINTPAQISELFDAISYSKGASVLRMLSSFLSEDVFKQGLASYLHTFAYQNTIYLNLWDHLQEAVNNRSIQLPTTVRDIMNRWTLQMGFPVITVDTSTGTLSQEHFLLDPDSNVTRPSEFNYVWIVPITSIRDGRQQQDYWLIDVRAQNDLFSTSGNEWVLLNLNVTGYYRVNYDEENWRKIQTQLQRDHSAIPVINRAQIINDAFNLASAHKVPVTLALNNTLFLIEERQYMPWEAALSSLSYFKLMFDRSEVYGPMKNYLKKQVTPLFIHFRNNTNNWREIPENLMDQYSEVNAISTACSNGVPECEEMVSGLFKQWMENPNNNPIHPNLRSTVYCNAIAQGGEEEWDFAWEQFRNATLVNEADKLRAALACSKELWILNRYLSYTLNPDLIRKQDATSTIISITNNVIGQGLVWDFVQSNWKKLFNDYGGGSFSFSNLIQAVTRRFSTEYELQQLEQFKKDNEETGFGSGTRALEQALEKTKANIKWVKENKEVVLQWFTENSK

The target of assay [7] is T5, ADP385.
T5 chain: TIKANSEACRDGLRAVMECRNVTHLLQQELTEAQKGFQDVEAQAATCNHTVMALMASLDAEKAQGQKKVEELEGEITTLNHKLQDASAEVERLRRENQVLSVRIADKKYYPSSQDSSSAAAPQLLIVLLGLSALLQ

Assay [8] has as its target T6, ADP377.
T6 chain: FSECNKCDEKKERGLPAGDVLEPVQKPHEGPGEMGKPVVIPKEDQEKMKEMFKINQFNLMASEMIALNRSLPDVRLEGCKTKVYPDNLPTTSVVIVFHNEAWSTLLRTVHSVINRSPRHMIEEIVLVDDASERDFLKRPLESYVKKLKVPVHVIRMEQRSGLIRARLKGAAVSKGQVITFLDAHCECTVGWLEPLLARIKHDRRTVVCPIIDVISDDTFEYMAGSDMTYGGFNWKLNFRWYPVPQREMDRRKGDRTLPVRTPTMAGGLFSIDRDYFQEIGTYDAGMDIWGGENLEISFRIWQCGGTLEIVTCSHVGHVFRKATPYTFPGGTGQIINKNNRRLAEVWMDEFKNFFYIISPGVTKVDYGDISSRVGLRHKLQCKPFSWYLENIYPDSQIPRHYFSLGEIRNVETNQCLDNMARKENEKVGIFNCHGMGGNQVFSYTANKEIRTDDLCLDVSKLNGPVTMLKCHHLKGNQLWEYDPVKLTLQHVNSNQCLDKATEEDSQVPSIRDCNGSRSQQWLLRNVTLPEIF

Chain of ADP099 (P02786 89-760): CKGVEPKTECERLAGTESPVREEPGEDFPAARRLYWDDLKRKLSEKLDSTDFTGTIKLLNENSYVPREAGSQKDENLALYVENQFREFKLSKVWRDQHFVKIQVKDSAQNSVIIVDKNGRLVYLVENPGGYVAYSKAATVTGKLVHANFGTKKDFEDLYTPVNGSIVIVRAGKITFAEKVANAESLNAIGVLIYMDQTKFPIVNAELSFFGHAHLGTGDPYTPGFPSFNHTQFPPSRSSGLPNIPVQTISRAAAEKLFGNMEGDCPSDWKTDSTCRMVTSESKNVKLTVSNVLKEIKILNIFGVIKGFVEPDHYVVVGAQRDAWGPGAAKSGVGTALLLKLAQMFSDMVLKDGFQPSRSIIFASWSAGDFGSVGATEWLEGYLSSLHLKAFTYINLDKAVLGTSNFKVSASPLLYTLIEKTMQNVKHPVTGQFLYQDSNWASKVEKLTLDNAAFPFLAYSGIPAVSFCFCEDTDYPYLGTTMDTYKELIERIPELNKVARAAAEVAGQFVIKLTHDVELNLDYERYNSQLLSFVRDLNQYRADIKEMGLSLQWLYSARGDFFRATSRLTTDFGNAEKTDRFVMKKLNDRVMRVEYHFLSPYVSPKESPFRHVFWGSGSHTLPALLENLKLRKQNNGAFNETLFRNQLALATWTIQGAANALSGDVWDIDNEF

B1: ADP237 (protein)
chain: TKKKVSVSEINFDSAVDDVQWCGNNHMTVLVKTVKGRLYRSSDGGKIWTNIAGNLADKENNKADPSSNHMNEMTTVDLIMVNSVNKNIVLIIGNQKNHYISEDSGETFRLLNYQNKINFWQFHSTKTHWALVSSWTEACYSNDDNSGECMQTLSLTKDLGRTFQLIDIYVVQFNWGDKESHLEDTIYYTRHKNRNGHQQRFSGWSKDVDFVATHNFGKSVDVLVKQGNKFLISNGYIFVAKLNDVIKQTVNMMVSTDGGKTFNKANLPENIHEKSYTVLDTSEGSIMLHVNHGTSSEKINTGNVYISDASGLNYALSLPNNIRTSSGECEFDRVLSLDGVYIANFLDVNNEIKDEDLRFQNFKSAIEEDIAPFETNTEKRKKQYNKGKNEDAVRTVISFNKGGEWSYLKAPKVDSRGNKYECGDNCYLHLHGITNYHQYAPFYSIENAVGIIMGTGNVGSHLRYESDEVNTFLSRDGGVTWIEAHKGPYIYEYGDYGGLIVMADDLRKTNQIVFSWNEGQSWFDFELGQFSIDVDNIVAEPNSASVEFLVYGTRNDVGVLYHLDFNALGQPLCKGLWAADSVSSDYETWSPTSGNFNDKCILGRKITYTRRKQTSECFNGKDLKRTVDKKPCECTPEDYECETGFTRKIGSYECKPNDPTLTIEGCTSSSYFYANAYRKVPGDICVNGWVPEKVPVPCPSYAPFNKAAK
modifications: bait human Fc-tagged dimer; N-glycosylation sequons mutated in Plasmodium baits
As to B1, the binding score stood at 5.11 in assay [1]; 16.2 in assay [2]; 5.28 in assay [3]; 10.3 in assay [4]; 19.2 in assay [5]; 8.67 in assay [6]. For the same molecule, the figures for the binding score in assay [7] and in assay [8] were 5.45 and 11.5, respectively.

For the origin of these results see article PMC11098746 (2024).
